Reference: US20180128830A1, “DETECTION OF HUMAN CYTOMEGALOVIRUS IN BREAST CANCER” (priority 2015, published 2018)

How the values were obtained:
MDA-MB-231 cells [1] = assay: Apoptosis, Annexin V-FITC flow cytometry; assay type: cell-based, human; details: 100 μM etoposide, 48 hrs
Experimental: (§1) Cells were seeded into 96-well dishes at a density of 1×10^4 cell per well in complete medium with varying doses of cmvIL-10, and then cell viability measured at the indicated time points using the Cell Titer Glo Assay kit according to manufacturer's instructions (Promega). DNA synthesis was measured in cells prepared in the same way using the BrdU Cell Proliferation ELISA Kit (Roche, Basel, Switzerland). For experiments using inhibitors, cells were cultivated in 96-well dishes as above with a final concentration of 10 μM inhibitor and BrdU incorporation evaluated after 72 hrs. For cell counts, cells were seeded into 6-well plates at a density of 2×10^5 cells per well, harvested via trypsinization, and counted using a hemacytometer at the indicated time points. The TACS Annexin V-FITC Detection Kit (Trevigen, Gaithersburg, Md.) was used to stain cells harvested from 70% confluent T75 flasks that had been treated with 100 μM etoposide for 48 hrs in the presence or absence of 100 ng/ml cmvIL-10. Cells were then analyzed via flow cytometry to detect fluorescence. For viability assays, Cell Titer Glo reagent was utilized to quantify cells that had been seeded into 96-well dishes at a density of 1×10^4 cell per well in complete medium with varying doses of etoposide in the presence or absence of 100 ng/ml cmvIL-10 as indicated

HEK293 cells = assay: Transwell migration toward CXCL12; assay type: cell-based, human; details: 4 hours, 5.0 μm filter
Experimental: Transwell migration assays were performed by suspending cells at a density of 5×10^4 cells/ml in migration media (MEM or RPMI […] media plus 0.5% FBS). A total of 75 μl of cells was placed onto the upper chamber of a 96-well transwell system with 5.0 μm pores (Corning-Costar, Corning, N.Y.). The lower chamber contained 235 μl of migration media with CXCL12 plus or minus cmvIL-10 as indicated. Plates were incubated for four hours at 37° C., and then cells that traversed through the filter into the lower chamber were quantified via the addition of CellTitre-Glo reagent (Promega, Madison, Wis.) according to manufacturer's instructions.

CXCR4 = target: T1, CXCR4 (Homo sapiens, UniProt P61073); assay: Calcium flux assay in HEK293 cells; assay type: cell-based; details: CXCL12 0.1 μg/ml alone
T1 construct: HEK293 cells, which endogenously express both CXCR4 and IL-10R; endogenous in cells; host or cells: HEK293
T1 sequence (P61073 whole entry): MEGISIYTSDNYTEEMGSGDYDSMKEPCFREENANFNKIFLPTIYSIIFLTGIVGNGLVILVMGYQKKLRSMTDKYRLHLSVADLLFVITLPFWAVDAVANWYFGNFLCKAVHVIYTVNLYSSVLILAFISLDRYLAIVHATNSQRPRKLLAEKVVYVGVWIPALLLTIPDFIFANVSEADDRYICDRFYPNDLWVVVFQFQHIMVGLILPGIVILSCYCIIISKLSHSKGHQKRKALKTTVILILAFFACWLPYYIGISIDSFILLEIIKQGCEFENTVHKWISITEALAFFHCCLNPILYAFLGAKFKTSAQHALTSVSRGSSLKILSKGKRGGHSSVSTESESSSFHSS
Experimental: Calcium flux assays were performed as described (Arnolds K L, et al. Virology 439:122-131.). Briefly, cells were resuspended in 2 mls calcium assay buffer (RPMI with 25 mM of HEPES) at a density of 5×10^5 cells/ml per sample. Each sample was labeled with 2 μl of Fluo-4AM (Invitrogen, Grand Island, N.Y.), wrapped in foil, at 37° C. for 30 minutes with agitation at 10-minute intervals. Following incubation, each sample was pelleted, resuspended in calcium assay buffer, and transferred into an eppendorf tube for flow cytometry using the BD C6 Accuri. Fluorescence intensity of each sample was measured for 20 seconds to establish baseline, then stimulus (CXCL12, in the presence or absence of cmvIL-10, as indicated) was added via micropipetting directly into the sample while fluorescence intensity was measured. Kinetic fluorescence intensity analysis was performed with FlowJo software v9.4.9 (FlowJo, Ashland, Oreg.). Purified recombinant cmvIL-10 was purchased from R&D Systems (Minneapolis, Minn.) and purified recombinant CXCL12 was purchased from Peprotech (Rocky Hill, N.J.). For each calcium flux assay, ionomycin (Sigma) was a positive control for Fluo-4AM loading and PBS served as a negative control for the addition of stimulus.

MDA-MB-231 cells [2] = assay: DNA synthesis, BrdU Cell Proliferation ELISA; assay type: cell-based, human; details: 10 ng/ml of each cytokine, 72 hrs
Experimental: as §1

Stat3 = assay: Western blot for Stat3 phosphorylation in MDA-MB-231 cells; assay type: cell-based, human; details: 100 ng/ml, 15 min
Experimental: (§2) For western blotting, cells were treated with 100 ng/ml cmvIL-10, hIL-10, IFNγ or PBS for 15 min, then harvested into cell lysis buffer (150 mM NaCl, 20 mM HEPES, 0.5% Triton-X-100, 1 mM NaOV4, 1 mM EDTA, 0.1% NaN3). Lysates were clarified, proteins were separated via SDS-PAGE, and then transferred to a nitrocellulose membrane. Then membrane was incubated in blocking solution (5% milk+1×TBS-T) for 1 hr, then probed with primary antibody at a 1:1000 dilution (total Stat3 or pStat3, total Stat1 or pStat1) in blocking solution overnight at 4° C. After washing, the membranes were incubated with a 1:2000 dilution of appropriate AP-conjugated secondary antibody and bands were detected using Western Blue stabilized AP substrate (Promega, Madison, Wis.). For analysis of secreted proteins, supernatants were collected at various time points, analyzed by SDS-PAGE and then immunoblotted as above for cmvIL-10, hIL-10, or serpin E1/PAI.

Stat1 = assay: Western blot for Stat1 phosphorylation in MDA-MB-231 cells; assay type: cell-based, human; details: 100 ng/ml, 15 min
Experimental: as §2

## COc1cc([C@@H]2c3cc4c(cc3[C@@H](O[C@@H]3O[C@@H]5CO[C@@H](C)O[C@H]5[C@H](O)[C@H]3O)[C@H]3COC(=O)[C@H]23)OCO4)cc(OC)c1O [etoposide, reference compound]
MDA-MB-231 cells [1]
  cells stained positive for Annexin V: 30.9%

## CXCL12: purified recombinant CXCL12 chemokine from Peprotech
HEK293 cells
  CXCL12 dose giving maximal migration: 0.1 ng/mL
CXCR4
  calcium mobilization (fluorescence): rapid but transient increase in fluorescence

## IL-6: purified recombinant IL-6 from R&D Systems
MDA-MB-231 cells [2]
  cell proliferation (BrdU incorporation): inhibited cell growth

B1: IFNγ: purified recombinant interferon-gamma from R&D Systems (protein, UniProt P01579 24-161, looked up)
Interferon gamma: QDPYVKEAENLKKYFNAGHSDVADNGTLFLGILKNWKEESDRKIMQSQIVSFYFKLFKNFKDDQSIQKSVETIKEDMNVKFFNSNKKKRDDFEKLTNYSVTDLNVQRKAIHELIQVMAELSPAAKTGKRKRSQMLFRG
Stat3
  83 kD band of phosphorylated Stat3 (pStat3): not
Stat1
  Stat1 phosphorylation: phosphorylated in response to IFNγ treatment only
MDA-MB-231 cells [2]
  cell proliferation (BrdU incorporation): inhibited cell growth
